Experimental findings from US20210380994A1, “LACTOCOCCUS LACTIS EXPRESSION SYSTEM FOR DELIVERING PROTEINS EFFICACIOUS FOR THE TREATMENT OF EPITHELIAL BARRIER FUNCTION DISORDERS” (Second Genome, Inc., priority 2018, published 2021) are described below.

The assay concerns human colonic epithelial cells (HCT8 enterocytes and HT29-MTX goblet cells). As to the kind of experiment: trans-epithelial electrical resistance (TEER) assay, epithelial/monocyte co-culture disrupted by heat killed E. coli. The assay is classed as cell-based. The procedure:
Assays were performed as described below in trans-well plates where co-cultures of multiple cell types were performed utilizing a permeable membrane to separate cells. In the apical (top) chamber, human colonic epithelial cells, consisting of a mixture of enterocytes and goblet cells, were cultured until cells obtained tight junction formation and barrier function capacity as assessed by measurement of trans-epithelial electrical resistance (TEER). In the basolateral chamber, monocytes were cultured separately. Epithelial […] were primed with inflammatory cytokines. The assays measured the effect of a therapeutic protein, e.g., SG-11, on epithelial barrier function, muc2 gene expression, and production of cytokines.
Cell culture. The HCT8 human enterocyte cell line (ATCC Cat. No. CCL-244) was maintained in RPMI-1640 medium supplemented with 10% fetal bovine seam, 100 IU/ml penicillin, 100 ? g/ml streptomycin, 10 ? g/ml gentamicin and 0.25 μg/ml amphotericin (cRPMI). HT29-MTX human goblet cells (Sigma-Aldrich (St. Louis, Mo.; Cat. No. 12040401) were maintained in DMEM medium with 10% fetal bovine serum, 100 IU/ml penicillin, 100 ? g/ml streptomycin, 10 ? g/ml gentamicin and 0.25 μg/ml amphotericin (cDMEM). Epithelial cells were passaged by trypsinization and were used between 5 and 15 passages following thawing from liquid nitrogen stocks. U937 monocytes (ATCC Cat. No. 700928) were maintained in cRPMI medium as a suspension culture, and split by dilution as needed to maintain cells between 5×10^5 and 2×10^6 cell/ml. U937 cells were used up to passage 18 following thawing from liquid nitrogen stocks.
Epithelial cell culture. A mixture of HCT8 enterocytes and HT29-MTX goblet cells were plated at a 9:1 ratio, respectively, in the apical chamber of the transwell plate as described previously (Berget et al., 2017, Int J Mol Sci, 18:1573; Beduneau et al., 2014. Eur J Pharm Biopharm, 87:290-298). A total of 10^5 cells were plated in each well (9×10^4 HCT cells and 1×10^4 HT29-MTX cells per well). Epithelial cells were trypsinized from culture flasks and viable cells determined by trypan blue counting. The correct volumes of each cell type were combined in a single tube and centrifuged. The cell pellet was resuspended in cRPMI and added to the apical chamber of the transwell plate. Celle were cultured for 8 to 10 days at 37° C.+5% CO2, and media was changed every 2 days.
Monocyte culture. On day 6 of epithelial cell culture 2×10^5 cells/well U937 monocytes were plated into a 96 well receiver plate. Cells were cultured at 37° C.+5% CO2 and media was changed every 24 hours for four days.
Co-culture assay. Following 8-10 days of culture, 10 ng/ml IFN-© was added to the basolateral chamber of the transwell plate containing enterocytes, for 24 hours at 37° C.+5% CO2. After 24 hours, fresh cRPMI was added to the epithelial cell culture plate. TEER readings were measured after the IFN-© treatment and were used as the pre-treatment TEER value. SG-11 was then added to the apical chamber of the transwell plate at a final concentration of 1 ? g/ml (40 nM). The myosin light chain kinase (MLCK) inhibitor peptide 18 (BioTechne, Minneapolis, Minn.) was used at 50 nM as a positive control to prevent inflammation induced barrier disruption (Zolotarevsky et al., 2002, Gastroenterology. 123:163-172). […]

[1] abbreviates: Example 12, 1 μg/ml (40 nM), 6 hours pre-incubation, SG-11 = SEQ ID NO:9, HK E. coli alone 78.6%, FIG. 17.

B1: SG-11: Roseburia hominis protein comprising SEQ ID NO:3; tested as SEQ ID NO:5, SEQ ID NO:7 or FLAG-tagged SEQ ID NO:9 (protein, listed as Rosburia hominis)
chain: LEGEESVVYVGKKGVIASLDVETLDQSYYDETELKSYVDAEVEDYTAEHGKNAVKVESLKVEDGVAKLKMKYKTPEDYTAFNGIELYQGKVVASLAAGYVYDGEFARVEEGKVVGAATKQDIYSEDDLKVAIIRANTDVKVDGEICYVSCQNVKLTGKDSVSIRDGYYLETGSVTASVDVTGQESVGTEQLSGTEQMEMTGEPVNADDTEQTEAAAGDGSFETDVYTFIVYK
For the molecule B1, the “TEER following disruption by HK E. coli” value by setting is: under setting [1], 89.5%; (Example 15, 1 μg/ml, 6 hours pre-incubation, SG-11 = SEQ ID NO:9, HK E. coli alone 78.6%, FIG. 28) 89.5%; (SG-11 1 μg/ml added 6 hours prior to HK E. coli, HK E. coli alone 53.5%, FIG. 1B) 60.6%; (SG-11 (SEQ ID NO:5 or 9) 1 μg/ml (40 nM) added 30 minutes prior to HK E. coli, HK E. coli alone 55.8%, FIG. 1A) 62%.

B2: SG-11V5: variant of SEQ ID NO:7 with N53S, N83S, C147V, C151S (protein)
chain: MLEGEESVVYVGKKGVIASLDVETLDQSYYDETELKSYVDAEVEDYTAEHGKSAVKVESLKVEDGVAKLKMKYKTPEDYTAFSGIELYQGKVVASLAAGYVYDGEFARVEEGKVVGAATKQDIYSEDDLKVAIIRANTDVKVDGEIVYVSSQNVKLTGKDSVSIRDGYYLETGSVTASVDVTGQESVGTEQLSGTEQMEMTGEPVNADDTEQTEAAAGDGSFETDVYTFIVYK
modifications: Artificial variant of SG-11 (N53S, N83S, C147V, C151S)
With B2, the “TEER following disruption by HK E. coli” value under setting [1] came to 89.1%.
